Data set [1] has as its system wildtype, C19A, C124A and C290A hGH proteins. As to conditions: 0.5 mM iodoacetate for 60 minutes.
Description: hGH activity in chromatography fractions was measured with 4-NH2-10-CH3PteGlu5 (Schirk Labs, Jona, Switzerland) as previously described (Rhee et al. 1998). The specific activities and reaction kinetics of hGH were determined using varying concentrations of 4-NH2-10-CH3PteGlu2 as substrate (Schirk Labs). Km and Vmax were determined by the method of Hanes (Price and Stevens 1989) with the best fit line calculated using Excel (Microsoft).
For data set [2], the system named is human gamma glutamyl hydrolase (hGH). The data set is described as follows: hGH activity assay with 4-NH2-10-CH3PteGlu2 as substrate (Km, Vmax, specific activity) of E. coli-expressed purified proteins. The class given is biochemical. The following applies: for Specific activity (nmol 4-NH2-10-CH3PteGlu2 hydrolyzed/min/mg protein): 200 μM 4-NH2-10-CH3PteGlu2 for 5 minutes; for Specific activity (nmol 4-NH2-10-CH3PteGlu2 hydrolyzed/min/mg protein) / Km / Vmax (nmol 4-NH2-10-CH3PteGlu2 hydrolyzed/min/μg protein): mean ± SD of 3 experiments; for hGH activity (in words): purified E. coli-expressed proteins; for Km: substrate 4-NH2-10-CH3PteGlu2, variable concentrations; for Vmax (nmol 4-NH2-10-CH3PteGlu2 hydrolyzed/min/μg protein): variable 4-NH2-10-CH3PteGlu2 concentrations. The procedure: Mutant plasmids were used to transform E. colistrain BL21(DE3)pLysS to kanamycin resistance. Cultures (20 ml) were grown for 16 hours at 37° C., 225 rpm in tryptone-phosphate broth (Moore et al. 1993), containing 30 μg/ml kanamycin and 34 μg/ml chloramphenicol. An aliquot (6 ml) of this culture was used to inoculate 500 ml of the same medium. Cultures were incubated at 27° C., 225 rpm until the OD600nm was 0.5-0.6. Isopropyl β-D-thiogalactoside (IPTG) was added to a final concentration of 1 mM and cultures were incubated for a further 3 hours. Cells were harvested by centrifugation and stored at −80° C. Cells from 1 liter of broth were resuspended in 50 ml of 50 mM Tris/HCl pH 7.5 buffer containing 500 mM NaCl and Complete protease inhibitor cocktail (Boehringer Mannheim, Indianapolis, Ind.). The mixture was sonicated and clarified by centrifugation at 20,000 g for 30 minutes at 4° C. A 20-60% ammonium sulfate precipitate was resuspended in 50 mM sodium acetate, pH 5.8, 1 mM octyl-β-D-glucoside (OBG) and 5% glycerol (buffer A). After dialysis at 4° C. against buffer A and clarification by centrifugation at 30,000 g, 4° C. for 120 minutes, the dialysate was applied in two aliquots to a Protein Pak SP colummn (1.0 cm×10 cm, Waters Division of Millipore Corp., Milford, Mass.) equilibrated in buffer A. The protein was eluted (1 ml/min) with a linear gradient in buffer A of 0 to 1M NaCl over 60 minutes. Fractions were assayed for hGH activity or for hGH protein by Western blot. Fractions containing hGH were pooled and frozen at −80° C. Wildtype hGH and the C19A, C110A, and C290A mutants eluted as two peaks whereas the C124A mutant eluted as a single peak coincident with the first peak for the other hGH proteins. […] There was 8-10 times more hGH protein in peak 1 than in peak 2. A statistically significant amount (40-82%) of enzyme activity of proteins purified on the SP column was lost when stored either at 4° C. or at −80° C. Thawed aliquots of peak 1 were incubated for 2 hours at 4° C. with 2 ml of pHMB agarose (0.8 μmole/ml agarose) (Sigma Chemical, St. Louis, Mo.) equilibrated in 50 mM sodium acetate pH 5.8, 20 mM OBG, 500 mM NaCl (buffer B). The matrix was poured into a column (0.75 cm×4.5 cm) and washed with buffer B. hGH protein was eluted with buffer B containing additionally 10 mM dithiothreitol and 50 mM β-mercaptoethanol. EDTA (1 mM final) was added to each fraction to inhibit remaining proteases. Fractions containing hGH were pooled and stored at −80° C.
Km and Vmax activities were measured using variable 4-NH2-10-CH3PteGlu2 substrate concentrations. Specific activities were measured using 200 μM 4-NH2-10-CH3PteGlu2 for 5 minutes.

For data set [3] the test system is unchanged. Put plainly: Activity of baculovirus-expressed hGH mutants on methotrexate polyglutamates. The class given is biochemical. The following applies: mutants expressed in the baculovirus system. The text has this: This model for the active site of hGH has been tested by preparing the Cys110Ala, His220Ala, Glu222Ala, His171Ala, and His171Asn mutants of hGH. The mutants were expressed in the baculovirus system used for active hGH to facilitate the rapid expression and purification of the proteins. The mutant proteins were characterized for activity on methotrexate polyglutamates. […] The role of His171 in hGH has been examined by preparing the mutant His171Ala and the more conservative mutation His171Asn.

Marks after values point to notes of the source that are not given here.

Usually Km stands for the substrate concentration at which the rate is half of its maximum.

For `O=C(O)CI` [iodoacetate], in data set [1], the “Reduction of hGH activity by iodoacetate” value is recorded as 70-94%.

B1: Wildtype: mature human gamma glutamyl hydrolase (SEQ ID NO:1) with N-terminal methionine, expressed in E. coli (protein, listed as Homo sapiens)
chain: RPHGDTAKKPIIGILMQKCRNKVMKNYGRYYIAASYVKYLESAGARVVPVRLDLTEKDYEILFKSINGILFPGGSVDLRRSDYAKVAKIFYNLSIQSFDDGDYFPVWGTCLGFEELSLLISGECLLTATDTVDVAMPLNFTGGQLHSRMFQNFPTELLLSLAVEPLTANFHKWSLSVKNFTMNEKLKKFFNVLTTNTDGKIEFISTMEGYKYPVYGVQWHPEKAPYEWKNLDGISHAPNAVNPAFYLAEFFVNEARKKNHHFKSESEEEKALIYQFSPIYTGNISSFQQCYIFD
modifications: N-terminal methionine
As to B1, in data set [2], the “Specific activity (nmol 4-NH2-10-CH3PteGlu2 hydrolyzed/min/mg protein)” value is on record as 1913 ± 32 nmol 4-NH2-10-CH3PteGlu2 hydrolyzed/min/mg protein, the “hGH activity (in words)” value is given as “had activity”, the Km was found to be 55.2 ± 8.4 µM and the “Vmax (nmol 4-NH2-10-CH3PteGlu2 hydrolyzed/min/μg protein)” value is recorded as 2.7 ± 0.9 nmol 4-NH2-10-CH3PteGlu2 hydro.

B2: C19A: hGH variant with cysteine 19 replaced by alanine (protein)
chain: RPHGDTAKKPIIGILMQKARNKVMKNYGRYYIAASYVKYLESAGARVVPVRLDLTEKDYEILFKSINGILFPGGSVDLRRSDYAKVAKIFYNLSIQSFDDGDYFPVWGTCLGFEELSLLISGECLLTATDTVDVAMPLNFTGGQLHSRMFQNFPTELLLSLAVEPLTANFHKWSLSVKNFTMNEKLKKFFNVLTTNTDGKIEFISTMEGYKYPVYGVQWHPEKAPYEWKNLDGISHAPNAVNPAFYLAEFFVNEARKKNHHFKSESEEEKALIYQFSPIYTGNISSFQQCYIFD
Turning to B2, in data set [2], the “Specific activity (nmol 4-NH2-10-CH3PteGlu2 hydrolyzed/min/mg protein)” value is 1000 ± 72^a nmol 4-NH2-10-CH3PteGlu2 hydrolyzed/min/mg protein, the “hGH activity (in words)” value is “had activity”, the Km was found to be 18.1 ± 0.4 µM and the “Vmax (nmol 4-NH2-10-CH3PteGlu2 hydrolyzed/min/μg protein)” value is 1.1 ± 0.3 nmol 4-NH2-10-CH3PteGlu2 hydro.

B3: His171Asn: hGH mutant with His 171 changed to Asn, expressed in the baculovirus system (protein)
chain: RPHGDTAKKPIIGILMQKCRNKVMKNYGRYYIAASYVKYLESAGARVVPVRLDLTEKDYEILFKSINGILFPGGSVDLRRSDYAKVAKIFYNLSIQSFDDGDYFPVWGTCLGFEELSLLISGECLLTATDTVDVAMPLNFTGGQLHSRMFQNFPTELLLSLAVEPLTANFNKWSLSVKNFTMNEKLKKFFNVLTTNTDGKIEFISTMEGYKYPVYGVQWHPEKAPYEWKNLDGISHAPNAVNPAFYLAEFFVNEARKKNHHFKSESEEEKALIYQFSPIYTGNISSFQQCYIFD
For the molecule B3, the “Activity on methotrexate tetraglutamate” value in data set [3] is “inactive”.

B4: C290A: hGH variant with cysteine 290 replaced by alanine (protein)
chain: RPHGDTAKKPIIGILMQKCRNKVMKNYGRYYIAASYVKYLESAGARVVPVRLDLTEKDYEILFKSINGILFPGGSVDLRRSDYAKVAKIFYNLSIQSFDDGDYFPVWGTCLGFEELSLLISGECLLTATDTVDVAMPLNFTGGQLHSRMFQNFPTELLLSLAVEPLTANFHKWSLSVKNFTMNEKLKKFFNVLTTNTDGKIEFISTMEGYKYPVYGVQWHPEKAPYEWKNLDGISHAPNAVNPAFYLAEFFVNEARKKNHHFKSESEEEKALIYQFSPIYTGNISSFQQAYIFD
Consider B4, for which, in data set [2], the “Specific activity (nmol 4-NH2-10-CH3PteGlu2 hydrolyzed/min/mg protein)” value is listed as 1406 ± 463 nmol 4-NH2-10-CH3PteGlu2 hydrolyzed/min/mg protein, the “hGH activity (in words)” value is “had activity”, the Km was 19.5 ± 8.6 µM and the “Vmax (nmol 4-NH2-10-CH3PteGlu2 hydrolyzed/min/μg protein)” value is 1.9 ± 0.4 nmol 4-NH2-10-CH3PteGlu2 hydro.

B5: H220A: hGH mutant with His 220 changed to Ala, expressed in the baculovirus system (protein)
chain: RPHGDTAKKPIIGILMQKCRNKVMKNYGRYYIAASYVKYLESAGARVVPVRLDLTEKDYEILFKSINGILFPGGSVDLRRSDYAKVAKIFYNLSIQSFDDGDYFPVWGTCLGFEELSLLISGECLLTATDTVDVAMPLNFTGGQLHSRMFQNFPTELLLSLAVEPLTANFHKWSLSVKNFTMNEKLKKFFNVLTTNTDGKIEFISTMEGYKYPVYGVQWAPEKAPYEWKNLDGISHAPNAVNPAFYLAEFFVNEARKKNHHFKSESEEEKALIYQFSPIYTGNISSFQQCYIFD
As for B5, the “Activity on methotrexate polyglutamates” value in data set [3] was “inactive”.

B6: Glu222Ala: hGH mutant with Glu 222 changed to Ala, expressed in the baculovirus system (protein)
chain: RPHGDTAKKPIIGILMQKCRNKVMKNYGRYYIAASYVKYLESAGARVVPVRLDLTEKDYEILFKSINGILFPGGSVDLRRSDYAKVAKIFYNLSIQSFDDGDYFPVWGTCLGFEELSLLISGECLLTATDTVDVAMPLNFTGGQLHSRMFQNFPTELLLSLAVEPLTANFHKWSLSVKNFTMNEKLKKFFNVLTTNTDGKIEFISTMEGYKYPVYGVQWHPAKAPYEWKNLDGISHAPNAVNPAFYLAEFFVNEARKKNHHFKSESEEEKALIYQFSPIYTGNISSFQQCYIFD
Consider B6, for which the “Activity on methotrexate polyglutamates” value in data set [3] was “greatly reduced activity”.

B7: C124A: hGH variant with cysteine 124 replaced by alanine (protein)
chain: RPHGDTAKKPIIGILMQKCRNKVMKNYGRYYIAASYVKYLESAGARVVPVRLDLTEKDYEILFKSINGILFPGGSVDLRRSDYAKVAKIFYNLSIQSFDDGDYFPVWGTCLGFEELSLLISGEALLTATDTVDVAMPLNFTGGQLHSRMFQNFPTELLLSLAVEPLTANFHKWSLSVKNFTMNEKLKKFFNVLTTNTDGKIEFISTMEGYKYPVYGVQWHPEKAPYEWKNLDGISHAPNAVNPAFYLAEFFVNEARKKNHHFKSESEEEKALIYQFSPIYTGNISSFQQCYIFD
With B7, in data set [2], the “Specific activity (nmol 4-NH2-10-CH3PteGlu2 hydrolyzed/min/mg protein)” value is 725 ± 79^a nmol 4-NH2-10-CH3PteGlu2 hydrolyzed/min/mg protein, the “hGH activity (in words)” value was “had activity”, the Km was found to be 28.5 ± 3.7 µM and the “Vmax (nmol 4-NH2-10-CH3PteGlu2 hydrolyzed/min/μg protein)” value is given as 1.0 ± 0.1 nmol 4-NH2-10-CH3PteGlu2 hydro.

Values taken from patent US6699683B1, “Active site of human gamma glutamy hydrolase” (Health Research Incorporated, priority 1996, dated 2004).
